In the series the test system is Escherichia coli TOP10. The experiment in a line: shrunken log2 fold change of peptide-encoding DNA abundance (4.5 h post-induction vs induction); higher = less antimicrobial activity (less host growth inhibition). Particulars: time post-induction: 4.5 h; library: site-saturation at positions 5, 18, 19, 20.
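Also: peptides expressed intracellularly from a pBAD plasmid library in pooled LB shake-flask culture, induced with 0.3% L-arabinose, DNA abundance read by NGS, three biological replicates, DESeq2 with apeglm shrinkage.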

In the case of RRIRVRPPRLPRPRPRPIRNPRP, the “shrunken log2 fold change” value was -0.0718. RRIRHRPPRLPRPRPRPPDLPRP: the “shrunken log2 fold change” value worked out at 0.0765. As for RRIRNRPPRLPRPRPRPFECPRP, the “shrunken log2 fold change” value is -0.000687. For RRIRTRPPRLPRPRPRPDQLPRP the value was -0.0381; for RRIRLRPPRLPRPRPRPGMYPRP, -0.115. Turning to RRIRGRPPRLPRPRPRPHYRPRP, the “shrunken log2 fold change” value was found to be 0.231. RRIRDRPPRLPRPRPRPQMIPRP: the “shrunken log2 fold change” value is -0.197. RRIRFRPPRLPRPRPRPMEMPRP: the “shrunken log2 fold change” value was -0.0294. Next, RRIRSRPPRLPRPRPRPWQPPRP: 0.155. For RRIRQRPPRLPRPRPRPECFPRP the value was 0.398. Next, RRIRYRPPRLPRPRPRPEMCPRP: -0.238; RRIRYRPPRLPRPRPRPHSAPRP: -0.121; RRIRVRPPRLPRPRPRPMFPPRP: 0.086. RRIRYRPPRLPRPRPRPPCVPRP: the “shrunken log2 fold change” value was found to be 0.0199. Next, RRIRQRPPRLPRPRPRPQMVPRP: 0.00426; RRIRTRPPRLPRPRPRPLPAPRP: 0.364; RRIRKRPPRLPRPRPRPLTWPRP: 0.13.

RRIRKRPPRLPRPRPRPWYSPRP: the “shrunken log2 fold change” value was -0.234. Next, RRIRHRPPRLPRPRPRPLAAPRP: 0.325; RRIRFRPPRLPRPRPRPPKIPRP: 0.145; RRIRNRPPRLPRPRPRPWMKPRP: -0.0173. For RRIRDRPPRLPRPRPRPAKWPRP the value was 0.486; for RRIRERPPRLPRPRPRPFVDPRP, -0.0208; for RRIRARPPRLPRPRPRPMEYPRP, -0.154. For RRIRKRPPRLPRPRPRPPDPPRP the value was 0.889.

Take RRIRTRPPRLPRPRPRPPEDPRP: the “shrunken log2 fold change” value was -0.0168. For the sequence RRIRLRPPRLPRPRPRPWAAPRP, the “shrunken log2 fold change” value was 0.15. Next, RRIRYRPPRLPRPRPRPYHWPRP: -0.115; RRIRRRPPRLPRPRPRPNAGPRP: 0.0188. Next, RRIRFRPPRLPRPRPRPMHDPRP: -0.236.

In the case of RRIRTRPPRLPRPRPRPACSPRP, the “shrunken log2 fold change” value was found to be 0.19.

Consider RRIRERPPRLPRPRPRPADRPRP, for which the “shrunken log2 fold change” value was -0.173. For RRIRMRPPRLPRPRPRPLAHPRP the value was 0.0417. Next, RRIRDRPPRLPRPRPRPAVQPRP: -0.00697. As to RRIRSRPPRLPRPRPRPECEPRP, the “shrunken log2 fold change” value is -0.0828.

For the sequence RRIRIRPPRLPRPRPRPLLEPRP, the “shrunken log2 fold change” value is -0.437. For RRIRYRPPRLPRPRPRPWGPPRP the value was -0.206; for RRIRQRPPRLPRPRPRPLVWPRP, 0.152. Next, RRIRVRPPRLPRPRPRPDGQPRP: -0.0901.

Consider RRIRYRPPRLPRPRPRPGKKPRP, for which the “shrunken log2 fold change” value was -0.00101. As to RRIRKRPPRLPRPRPRPHSQPRP, the “shrunken log2 fold change” value is -0.142. Next, RRIRWRPPRLPRPRPRPIGFPRP: 0.0993; RRIRQRPPRLPRPRPRPHWNPRP: -0.703; RRIRFRPPRLPRPRPRPSFRPRP: -0.433. For RRIRMRPPRLPRPRPRPNHKPRP the value was -0.391; for RRIRYRPPRLPRPRPRPYYAPRP, -0.634; for RRIRYRPPRLPRPRPRPFKGPRP, 0.00253. For RRIRIRPPRLPRPRPRPRHSPRP the value was -0.646; for RRIRVRPPRLPRPRPRPVHEPRP, -0.104; for RRIRERPPRLPRPRPRPPIWPRP, -0.0729. On to RRIRLRPPRLPRPRPRPKRCPRP, for which the “shrunken log2 fold change” value is -0.0395.

In the case of RRIRKRPPRLPRPRPRPWFEPRP, the “shrunken log2 fold change” value is 0.0346. For RRIRPRPPRLPRPRPRPFPVPRP, the “shrunken log2 fold change” value came out at 0.00381. Next, RRIRTRPPRLPRPRPRPSDCPRP: 0.131. Consider RRIRKRPPRLPRPRPRPRKEPRP, for which the “shrunken log2 fold change” value was 0.015. Next, RRIRGRPPRLPRPRPRPELVPRP: 1.58; RRIRHRPPRLPRPRPRPWLFPRP: -0.0716; RRIRIRPPRLPRPRPRPWPVPRP: -0.0355.

On to RRIRFRPPRLPRPRPRPRCAPRP, for which the “shrunken log2 fold change” value worked out at 0.178. Next, RRIRGRPPRLPRPRPRPNPKPRP: 0.391. Next, RRIRPRPPRLPRPRPRPMQFPRP: 0.231. For RRIRHRPPRLPRPRPRPWPTPRP the value was 0.103. On to RRIRIRPPRLPRPRPRPSSEPRP, for which the “shrunken log2 fold change” value was -0.299.

Regarding RRIRLRPPRLPRPRPRPGRHPRP, the “shrunken log2 fold change” value was 0.0767.

In the case of RRIRRRPPRLPRPRPRPDCIPRP, the “shrunken log2 fold change” value is 0.0761.

Consider RRIRERPPRLPRPRPRPHARPRP, for which the “shrunken log2 fold change” value was 0.198.

For the sequence RRIRTRPPRLPRPRPRPCLQPRP, the “shrunken log2 fold change” value was -0.0598. Next, RRIRIRPPRLPRPRPRPLSHPRP: -0.0521; RRIRGRPPRLPRPRPRPTKEPRP: 0.439. With RRIRTRPPRLPRPRPRPMYCPRP, the “shrunken log2 fold change” value is -0.873.

As for RRIRNRPPRLPRPRPRPIFKPRP, the “shrunken log2 fold change” value was -0.174.

As for RRIRLRPPRLPRPRPRPPGNPRP, the “shrunken log2 fold change” value came to 0.303. For RRIRYRPPRLPRPRPRPECAPRP the value was -0.126. As to RRIRWRPPRLPRPRPRPCRDPRP, the “shrunken log2 fold change” value was -0.0737. For RRIRERPPRLPRPRPRPKAQPRP the value was 0.221. For RRIRSRPPRLPRPRPRPQFMPRP the value was -0.274. As to RRIRLRPPRLPRPRPRPCFMPRP, the “shrunken log2 fold change” value is -0.311. For RRIRSRPPRLPRPRPRPDDCPRP the value was -0.0201; for RRIRLRPPRLPRPRPRPLQHPRP, 0.212. For RRIRFRPPRLPRPRPRPVSCPRP the value was -0.514; for RRIRVRPPRLPRPRPRPMTQPRP, 0.181; for RRIRKRPPRLPRPRPRPRKYPRP, -0.211. For RRIRRRPPRLPRPRPRPHPPPRP the value was 0.746; for RRIRQRPPRLPRPRPRPILIPRP, -0.521; for RRIRRRPPRLPRPRPRPMLYPRP, -0.0417. Take RRIRIRPPRLPRPRPRPSQRPRP: the “shrunken log2 fold change” value is -0.466. Next, RRIRKRPPRLPRPRPRPISCPRP: 0.0993. For RRIRMRPPRLPRPRPRPMPKPRP the value was 0.0834. Next, RRIRARPPRLPRPRPRPMMVPRP: 0.212. In the case of RRIRLRPPRLPRPRPRPSTPPRP, the “shrunken log2 fold change” value was -0.207. For RRIRTRPPRLPRPRPRPPAGPRP the value was 0.279; for RRIRLRPPRLPRPRPRPVEDPRP, 0.0985. For RRIRFRPPRLPRPRPRPGIDPRP the value was -0.0216. For RRIRVRPPRLPRPRPRPHMHPRP the value was -0.517; for RRIRKRPPRLPRPRPRPEWRPRP, 0.295. As for RRIRARPPRLPRPRPRPLNKPRP, the “shrunken log2 fold change” value came to 0.028. Next, RRIRNRPPRLPRPRPRPGGMPRP: -0.0941; RRIRCRPPRLPRPRPRPTKQPRP: -0.0825; RRIRLRPPRLPRPRPRPASGPRP: 0.373. Next, RRIRVRPPRLPRPRPRPSAGPRP: 0.295.

For the sequence RRIRPRPPRLPRPRPRPERFPRP, the “shrunken log2 fold change” value is -0.0264. For RRIRIRPPRLPRPRPRPCHQPRP the value was -0.245; for RRIRSRPPRLPRPRPRPQEDPRP, -0.244; for RRIRSRPPRLPRPRPRPNELPRP, -0.295. Next, RRIRFRPPRLPRPRPRPYLRPRP: -0.138; RRIRTRPPRLPRPRPRPQNQPRP: -0.584.

In the case of RRIRTRPPRLPRPRPRPDGTPRP, the “shrunken log2 fold change” value was -0.208. For RRIRERPPRLPRPRPRPVVNPRP the value was -0.257. For RRIRRRPPRLPRPRPRPPNNPRP the value was 0.177; for RRIRCRPPRLPRPRPRPQCPPRP, -0.399. Next, RRIRARPPRLPRPRPRPFGNPRP: -0.148; RRIRCRPPRLPRPRPRPNKAPRP: -0.116; RRIRWRPPRLPRPRPRPMPWPRP: 0.0161.

Turning to RRIRMRPPRLPRPRPRPPETPRP, the “shrunken log2 fold change” value came to 0.807.

RRIRDRPPRLPRPRPRPFRKPRP: the “shrunken log2 fold change” value was -0.0314. Next, RRIRNRPPRLPRPRPRPSGKPRP: 0.0521; RRIRFRPPRLPRPRPRPTHNPRP: -0.18; RRIRSRPPRLPRPRPRPNIWPRP: -0.0665. Next, RRIRKRPPRLPRPRPRPKNNPRP: -0.047. For RRIRARPPRLPRPRPRPWMMPRP the value was -0.248; for RRIRNRPPRLPRPRPRPNANPRP, -0.199; for RRIRLRPPRLPRPRPRPTVIPRP, -0.059. RRIRTRPPRLPRPRPRPNSFPRP: the “shrunken log2 fold change” value was -0.00453. For RRIRLRPPRLPRPRPRPFESPRP the value was -0.168. For RRIRCRPPRLPRPRPRPILWPRP the value was 0.0346.

Values taken from the supplement of paper PMC9112550, “Optimization of the antimicrobial peptide Bac7 by deep mutational scanning” (BMC Biology, 2022).
